“Also recorded” adds a separate entry of the source.

This note sets out measurements from US8013125B2, “Metalloproteinase 9 and metalloproteinase 2 binding proteins” (Dyax Corp., priority 2008, dated 2011).

The target of series [1] is T1, Human MMP-9 catalytic domain (Homo sapiens, UniProt P14780).
T1 construct: Human MMP-9 catalytic domain (BIOMOL, SE-244); purchased BIOMOL SE-244
As to the kind of experiment: Ki determination with fluorogenic peptide substrate. As to conditions: fluorogenic peptide substrates. The class given is biochemical. The protocol: (§1) This example characterized the interaction of the M0237-D02 hIgG1 with the human and mouse MMP-9. The Ki was measured and the inhibition mechanism was determined.
(§2) Materials: • Substrate: Mca -KPLGL-Dap(Dnp)-AR-NH2(SEQ ID NO: 1279) (M-2350) from BACHEM (521575). A 10mM stock solution was prepared in DMSO. • Enzymes: • Human MMP-9 catalytic domain (BIOMOL, SE-244). Enzyme concentration was measured by titration with TIMP-1 (2522-104) • Mouse MMP-9 (R&D, 909-MM), APMA-activated. • M0237-D02 hIgG1 : 2517-014. Dialysed against TCN. • TCNB: 50 mM Tris/HCl, 10 mM CaCl2, 150 mM NaCl, 0.05% Brij 35, pH 7.5. • 96-well black plates from Perkin Elmer (6005270) • Spectramax M2e to measure fluorescence emission of the substrate upon hydrolysis (temperature control set at 30° C.; λexc=328 nm and λem=393 nm)
(§3) The enzyme (final concentration=0.23 and 0.17 nM for the human and mouse MMP-9, respectively) was preincubated with various concentrations (0-50 nM) of M0237-D02 for 1 h at 30° C. The substrate was then added to a final concentration ranging from 5 to 40 μM and initial rates were recorded.
(§4) Each data point was measured in triplicate, and initial rates were averaged.
(§5) Averaged initial rates were plotted against the M0237-D02 concentration for each substrate concentration, and IC50's were calculated using the following equation: […]
(§6) The IC50 values were then plotted against the substrate concentration.

The target in a further series is T2, Mouse MMP-9 (Mus musculus, UniProt P41245).
T2 construct: purchased R&D 909-MM
T2 sequence (P41245 108-730): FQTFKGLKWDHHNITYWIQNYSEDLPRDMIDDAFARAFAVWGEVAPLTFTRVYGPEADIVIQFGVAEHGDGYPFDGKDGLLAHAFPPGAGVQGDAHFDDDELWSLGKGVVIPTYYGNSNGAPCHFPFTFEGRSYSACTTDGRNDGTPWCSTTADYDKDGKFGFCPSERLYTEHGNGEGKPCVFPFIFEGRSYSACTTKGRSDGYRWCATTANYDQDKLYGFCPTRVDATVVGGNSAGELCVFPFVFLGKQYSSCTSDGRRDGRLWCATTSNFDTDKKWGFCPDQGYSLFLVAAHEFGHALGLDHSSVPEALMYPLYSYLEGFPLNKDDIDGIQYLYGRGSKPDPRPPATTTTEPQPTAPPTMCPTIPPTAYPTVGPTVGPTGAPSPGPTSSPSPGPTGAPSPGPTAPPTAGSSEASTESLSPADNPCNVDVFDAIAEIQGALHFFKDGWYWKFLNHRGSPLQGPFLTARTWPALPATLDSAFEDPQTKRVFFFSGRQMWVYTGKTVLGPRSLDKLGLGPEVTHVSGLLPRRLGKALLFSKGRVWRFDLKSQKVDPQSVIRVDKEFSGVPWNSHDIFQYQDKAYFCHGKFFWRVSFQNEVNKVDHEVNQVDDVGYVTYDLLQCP
The description is as above. The class given is biochemical. As to conditions: fluorogenic peptide substrates. The protocol: as §1, §2, §3, §4, §5, §6

Series [2] concerns the target T1, Human MMP-9 catalytic domain. As to the kind of experiment: Biacore binding of analyte to coated antibody. As to conditions: 25° C. The protocol:
(§7) The non competitive inhibition model implies that the ternary complex enzyme-substrate-inhibitor can form. It is however possible that this complex cannot form with bigger substrates, in which case the antibody would behave as a competitive inhibitor. In order to address this issue, the ability of M0237-D02 antibody to bind to the h-MMP-9 when the enzyme is complexed to its natural inhibitor h-TIMP-1 was determined. The reasoning is that if the antibody cannot bind to the h-MMP-9/h-TIMP-1 complex, it would probably behave as a competitive inhibitor of this enzyme in the presence of bigger substrates.
(§8) Experiments were performed at 25° C. with the help of a Biacore 3000 instrument. The MMP-9 binding protein (M0166F10) and the M0237-D02 antibody were coated to a CM5 chip either via standard amine coupling or using an anti-Fc antibody surface. Then either the active, human MMP-9 catalytic domain (BIOMOL, SE-244), the human pro-MMP-9 (R&D, 911-MP), the human TIMP-1 (R&D, 970-TM) or a h-MMP-9/h-TIMP-1 complex were flowed over the antibody surfaces, and binding was recorded.

The next series concerns the target h-MMP-9/h-TIMP-1 complex (Homo sapiens, UniProt P14780). As to the kind of experiment: Biacore binding of analyte to coated antibody. As to conditions: 25° C. On the procedure:
as §7, §8
On the technique in general: Surface plasmon resonance follows binding to a sensor surface in real time, without labels.

The next series has as its target T3, human TIMP-1 (Homo sapiens, UniProt P01033).
T3 construct: purchased R&D 970-TM
As to the kind of experiment: Biacore binding of analyte to coated antibody. As to conditions: Direct capture; 25° C. The protocol: as §7, §8

Another series concerns the target T4, human pro-MMP-9 (Homo sapiens, UniProt P14780).
T4 construct: the human pro-MMP-9 (R&D, 911-MP); purchased R&D 911-MP
As to the kind of experiment: Biacore binding of analyte to coated antibody. As to conditions: Direct capture, 25° C. On the procedure: as §7, §8

The target of series [3] is T1, Human MMP-9 catalytic domain. As to the kind of experiment: Inhibition progress curves and kinetic analysis. The class given is biochemical. As to conditions: 25° C.; for kobs: substrate 9 μM. On the procedure:
The kinetics of the interaction between M0237-D02 and the human MMP-9 were determined. The rates were determined using the following equation: […]
The second order rate constant for the association of the enzyme E and the inhibitor I (kon) and the first order rate constant for the dissociation of the complex El (koff) can be calculated from inhibition progress curves obtained at different inhibitor concentrations.
Materials: • Substrate: Mca -KPLGL-Dap(Dnp)-AR-NH2(SEQ ID NO: 1279) (M-2350) from BACHEM (521575). A 10mM stock solution was prepared in DMSO. • Human MMP-9 catalytic domain (BIOMOL, SE-244). • M0237-D02 hIgG1 : 2517-068. • All measurements were performed at 25° C. in TCNB: 50 mM Tris/HCl, 10 mM CaCl2, 150mM NaCl 0.05% Brij 35, pH 7.5. • 96-well black plates from Perkin Elmer (6005270) • Spectramax M2e to measure fluorescence emission of the substrate upon hydrolysis (λexc=328 nm and λem=393 nm)
The enzyme (at a final concentration ranging from 1.5 to 12.3 nM), the substrate (9 μM final) and the M0237-D02 antibody were mixed, and the fluorescence was immediately recorded in order to follow the hydrolysis of the substrate. The observed inhibition rate (kobs) was obtained by analyzing the progress curves with a single exponential. The value for kon and koff were calculated from the plot of the kobs vs. the antibody concentration using the following equation: kobs=kon[I]+koff
kobs was measured at four antibody concentrations (table below): […]

Series [4] relates to gelatinolytic activity (tumoral MMP-2-9) in Colo205 tumor sections. As to the kind of experiment: Film in situ zymography (FIZ). The class given is biochemical, human. As to conditions: 500 nM, 37° C. overnight. On the procedure:
(§9) PBS-control treated tumors were screened with M0237-D02 for gelatinase expression using the FIZ approach. The tumors tested were Colo205 and MCF-7. Briefly, frozen slides of tumpor sections were dried at room temperature and 200 μl of in situ Zymo buffer (TCNB)+20 μg/ml of gelatin quenched substrate from molecular probes was added. The slides were incubate at 37° c. overnight in the presence of M0237-D02 at 500 nM or GM6001 used as a positive control at 100 μM. The substrate was washed in MilliQ (3 times) and the mounted slides were treated with anti-Fade+Dapi mounting medium.

Series [5] concerns gelatinolytic activity (tumoral MMP-2-9) in MCF-7 tumor sections. As to the kind of experiment: Film in situ zymography (FIZ). The class given is biochemical, human. As to conditions: 500 nM, 37° C. overnight. The protocol:
as §9

The subject of series [6] is inflammatory cell infiltration into the carrageenan-stimulated mouse air pouch. As to the kind of experiment: Carrageenan-stimulated mouse air pouch model. As to conditions: FIG. 2. The class given is in vivo. From the text: (§10) The purpose of the following experiments were to determine the effect of 539A-M0237-D02 on inflammation and specifically on inflammatory cell infiltration into the carrageenan-stimulated mouse air pouch and on the arthritic index in collagen-induced arthritis (CIA) mice.
For the carrageenan-stimulated mouse air pouch model, subcutaneous injection of air into the hind flank or back of mice produces an air pouch in a week, the interior surface of which contains both fibroblast-like and macrophage-like cells. Inflammatory stimulation of the pouch results in leukocyte recruitment to the pouch and release of mediators (cytokines) into the exudate. Preventing inflammatory cell infiltration into the air pouch may translate into preventing inflammation of the synovium in rheumatoid arthritis.
The effect of 539A-M0237-D02 on inflammatory cell infiltration was compared to inflammatory cell infiltration indomethacin and a control (PBS). In addition, inflammatory cell recruitment was compared to an unstimulated mouse.

Series [7] has as its system collagen-induced arthritis (CIA) mice. As to the kind of experiment: Collagen-induced arthritis (CIA) mice. The class given is in vivo, mouse. As to conditions: CIA model, compared to untreated mice; FIG. 3.
From the text: as §10
The collagen-induced arthritis (CIA) was produced by the immunization of susceptible strains of mice with native type II collagen. The collagen was emulsified in Freund's complete adjuvant and injected subcutaneously. A booster injection of collagen in incomplete adjuvant was given IP 21 days after the initial immunization. The disease is due to an auto-immune response induced upon immunization with collagen.
The effect 539A-M0237-D02 on the arthritic index was compared to administration of methotrexate (MTX).

Where [8] appears, read: Direct capture (amine coupling) of antibody on CM5 chip.
Setting [9] is: Fc capture (anti-Fc antibody surface).
Where [10] appears, read: from plot of kobs vs. the antibody concentration.

Chain of h-MMP-9/h-TIMP-1 complex (P14780 107-449 limits assumed): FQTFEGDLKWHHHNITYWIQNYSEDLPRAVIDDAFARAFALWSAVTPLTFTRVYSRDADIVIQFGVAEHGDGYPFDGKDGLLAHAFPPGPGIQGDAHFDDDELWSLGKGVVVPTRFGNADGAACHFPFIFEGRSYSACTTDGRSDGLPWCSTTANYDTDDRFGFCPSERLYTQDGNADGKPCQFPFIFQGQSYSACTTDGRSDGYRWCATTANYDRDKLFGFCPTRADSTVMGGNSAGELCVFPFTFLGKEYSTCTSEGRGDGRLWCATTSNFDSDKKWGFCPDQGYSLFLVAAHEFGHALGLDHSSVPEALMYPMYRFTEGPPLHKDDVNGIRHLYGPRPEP
Chain of h-MMP-9/h-TIMP-1 complex (P01033 24-207 partner): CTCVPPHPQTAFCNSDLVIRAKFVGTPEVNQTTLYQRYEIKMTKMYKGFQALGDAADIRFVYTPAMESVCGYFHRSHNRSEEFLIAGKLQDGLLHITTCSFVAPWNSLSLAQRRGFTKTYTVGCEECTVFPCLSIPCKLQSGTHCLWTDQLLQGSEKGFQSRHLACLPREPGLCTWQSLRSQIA
T1 sequence (P14780 107-449 limits assumed): as the sequence (P14780 107-449 limits assumed) above
T4 sequence (P14780 20-707 limits assumed): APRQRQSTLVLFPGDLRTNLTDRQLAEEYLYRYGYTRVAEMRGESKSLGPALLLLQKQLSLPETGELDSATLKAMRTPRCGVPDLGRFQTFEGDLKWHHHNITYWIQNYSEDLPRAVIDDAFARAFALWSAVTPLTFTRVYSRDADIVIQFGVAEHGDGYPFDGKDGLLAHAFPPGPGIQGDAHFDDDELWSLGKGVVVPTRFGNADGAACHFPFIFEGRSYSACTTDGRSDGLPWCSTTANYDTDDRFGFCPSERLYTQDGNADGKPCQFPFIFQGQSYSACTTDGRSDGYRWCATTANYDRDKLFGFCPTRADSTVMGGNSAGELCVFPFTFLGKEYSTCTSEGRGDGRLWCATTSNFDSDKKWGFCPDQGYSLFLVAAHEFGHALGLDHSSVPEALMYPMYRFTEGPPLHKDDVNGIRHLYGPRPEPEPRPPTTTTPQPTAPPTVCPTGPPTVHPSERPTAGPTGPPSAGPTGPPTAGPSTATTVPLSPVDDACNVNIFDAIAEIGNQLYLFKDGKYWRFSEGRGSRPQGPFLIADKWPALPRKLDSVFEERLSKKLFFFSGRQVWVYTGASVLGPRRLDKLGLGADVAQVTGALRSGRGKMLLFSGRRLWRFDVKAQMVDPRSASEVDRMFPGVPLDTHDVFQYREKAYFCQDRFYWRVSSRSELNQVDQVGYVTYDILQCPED
T3 sequence (P01033 24-207): as the sequence (P01033 24-207 partner) above

B1: M0237-D02: MMP-9/-2 dual reactive antibody inhibitor (parental); used as hIgG1 and Fab; VL/VH sequences in Example 7 (antibody, V domains shown)
VL: QDIQMTQSPATLSLSPGERATLSCRASQSISSFLAWYQQKPGQAPRLLIYDASYRATGIPARFSGSGSGTDFTLTISSLEPEDYAVYYCQQRGNWPITFGQGTRLEIKRTVAAPS
VH: EVQLLESGGGLVQPGGSLRLSCAASGFTFSQYPMWWVRQAPGKGLEWVSYIVPSGGRTYYADSVKGRFTISRDNSKNTLYLQMNSLRAEDTAVYYCAKDRAYGDYVGWNGFDYWGQGTLVTVSSASTKGPSVFPLAPSSKS
Turning to B1, the inhibition model entry (in [1]; in the series with Mouse MMP-9) was “non competitive inhibitor” throughout. The “Binding of Cat-huMMP-9” value in series [2] (setting [8]) is “No”; in [2] (setting [9]), “could be observed only if this antibody was captured via an anti-Fc antibody”; in [2] (Fc capture (anti-Fc antibody surface), listed as 539A-M0237D02), “Yes”. The “Binding of huTIMP-1/cat-huMMP-9” value with h-MMP-9/h-TIMP-1 complex (Direct capture) is listed as “No”; with h-MMP-9/h-TIMP-1 complex (Fc capture) it was “no binding was observed; also recorded: cannot bind”; with h-MMP-9/h-TIMP-1 complex (Fc capture, listed as 539A-M0237D02) it was “No”. In the series with human TIMP-1, the “Binding of huTIMP-1” value is “No”. The results for the “Binding of Pro-huMMP-9” value in the series with human pro-MMP-9 (listed as 539A-M0237D02) and with human pro-MMP-9 (listed as M237-D02) were “No” and “observed neither”, respectively. Besides, the kobs was 0.0013 s⁻¹ in series [3] (M0237-D02 concentration 14.4 nM), 0.0019 s⁻¹ in series [3] (M0237-D02 concentration 19.2 nM), 0.0024 s⁻¹ in series [3] (M0237-D02 concentration 28.8 nM) and 0.0086 s⁻¹ in [3] (M0237-D02 concentration 115.2 nM). Besides, the koff in series [3] (setting [10]) is given as ~4 10^−4 s^−1. Further, the kon in series [3] (setting [10]) is recorded as ~7 10^4 M^−1 s^−1. For the same molecule, the “inhibition of gelatinolytic activity” value in series [4] and in series [5] was “complete inhibition” throughout. Moreover, the lymphocyte infiltration result in [6] is reported as “significantly decreased”. Also, in [6], the neutrophil infiltration entry is “significantly decreased”. In addition, in [6], the “total white blood cell infiltration” value is reported as “significantly decreased”. For the same molecule, in series [7], the arthritic index result was “decreased”.

B2: M0166-F10: inhibitory MMP-9 binding antibody (hMMP-9 antibody inhibitor) (antibody, V domains shown)
VL: QSELTQPPSASAAPGQRVTISCSGSSSNIGSNTVTWYQKLPGTAPKLLIYNNYERPSGVPARFSGSKSGTSASLAISGLQSEDEADYYCATWDDSLIANYVFGSGTKVTVLGQPKANP
VH: EVQLLESGGGLVQPGGSLRLSCAASGFTFSPYLMNWVRQAPGKGLEWVSSIYSSGGGTGYADSVKGRFTISRDNSKNTLYLQMNSLRAEDTAVYYCARIYHSSSGPFYGMDVWGQGTTVTVSSASTKGPSVFPLAPSSKS
B2: the “Binding of Cat-huMMP-9” value in series [2] (setting [8]) is on record as “binds”; in series [2] (Direct capture (amine coupling) of antibody on CM5 chip, listed as 539A-M0166F10), “Yes”; in [2] (setting [9]), “binds”; in [2] (Fc capture (anti-Fc antibody surface), listed as 539A-M0166F10), “Yes”. In addition, the “Binding of huTIMP-1/cat-huMMP-9” value in the series with h-MMP-9/h-TIMP-1 complex (Direct capture) is “no binding was observed”; with h-MMP-9/h-TIMP-1 complex (Direct capture, listed as 539A-M0166F10) it was “No”. Further, the “Binding of huTIMP-1” value with human TIMP-1 is “No”. Moreover, the “Binding of Pro-huMMP-9” value in the series with human pro-MMP-9 is “observed neither”; with human pro-MMP-9 (listed as 539A-M0166F10), “~No”.
